Publication PMC3393751

Target: cytochrome b558 (human (endogenous in neutrophils)) (UniProt P04839)
UniProt P04839, sequence (P04839 whole entry, chain 1 of 2): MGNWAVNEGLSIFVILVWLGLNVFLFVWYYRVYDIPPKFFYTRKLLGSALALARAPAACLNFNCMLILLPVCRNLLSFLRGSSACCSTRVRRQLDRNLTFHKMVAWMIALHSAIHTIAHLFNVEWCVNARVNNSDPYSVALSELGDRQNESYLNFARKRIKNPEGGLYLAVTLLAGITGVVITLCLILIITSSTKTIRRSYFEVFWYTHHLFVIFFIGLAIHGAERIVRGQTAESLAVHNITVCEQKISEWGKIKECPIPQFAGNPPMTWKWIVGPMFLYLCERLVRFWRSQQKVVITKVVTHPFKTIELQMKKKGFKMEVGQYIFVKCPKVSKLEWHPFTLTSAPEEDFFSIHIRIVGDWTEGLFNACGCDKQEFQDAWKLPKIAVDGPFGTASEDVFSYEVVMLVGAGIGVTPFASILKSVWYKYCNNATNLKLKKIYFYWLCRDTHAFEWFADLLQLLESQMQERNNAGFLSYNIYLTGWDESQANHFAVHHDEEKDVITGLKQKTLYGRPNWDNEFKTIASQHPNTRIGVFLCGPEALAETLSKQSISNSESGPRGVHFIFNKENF
UniProt P04839, sequence (P13498 whole entry, chain 2 of 2, further chain): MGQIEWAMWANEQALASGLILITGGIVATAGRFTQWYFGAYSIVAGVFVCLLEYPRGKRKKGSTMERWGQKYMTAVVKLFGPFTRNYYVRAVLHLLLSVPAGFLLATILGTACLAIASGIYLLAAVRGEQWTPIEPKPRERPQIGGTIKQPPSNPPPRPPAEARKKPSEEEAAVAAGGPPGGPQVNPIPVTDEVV

- constitutive NADPH oxidase turnover (without arachidonic acid) of cytochrome b558 washed on the heparin matrix with the calcium loaded chimera instead of cytosol (control without washing 3.7 s^-1): 17 s⁻¹
Substance: rS100A9-A8 chimera (full length) (from UniProt P05109 1-93)
